Measurements as given in patent US20250333498A1 (BIO THERA SOLUTIONS, published 2025).
Substitutions are numbered along the chain they refer to. Names and notes keep the numbering of the source. One block for each binder: values may come before it.

How the values were obtained:
human CLDN18.2 [1] = target: T1, human CLDN18.2 (human); test: flow cytometry on KATOIII cells (CLDN18.2 positive), PE anti-human IgG-Fc secondary antibody
T1 construct: The cell line is named under assay; also called claudin-18 isoform 2
Procedure: (§1) Flow cytometry was used to detect the binding capacity of anti-CLDN18.2 antibodies and ADCs to cells expressing CLDN18.2, and the specificity of not binding to CLDN18.1 of the antibody was further detected. […] The mixture was incubated at 4° C. for 1 h and washed twice with PBS.

human CLDN18.2 [2] = target: T1, human CLDN18.2; test: flow cytometry on CHO-CLDN18.2 cells
human CLDN18.2 [3] = target: T1, human CLDN18.2; test: flow cytometry on KATOIII cells (item 2)
human CLDN18.2 [4] = target: T1, human CLDN18.2; test: cell-based or functional assay
human CLDN18.2 [5] = target: T1, human CLDN18.2; test: flow cytometry on KATOIII cells (item 3); KATOIII cells; item 3, compared with the humanized antibodies
Procedure: as §1

human CLDN18.2 [6] = target: T1, human CLDN18.2; test: flow cytometry on CHO-CLDN18.2 cells; CHO-CLDN18.2 cells
Procedure: as §1

human CLDN18.2 [7] = target: T1, human CLDN18.2; test: flow cytometry on KATOIII cells (item 2); KATOIII cells; item 2, compared with IMAB362
Procedure: as §1

human CLDN18.2 [8] = target: T1, human CLDN18.2; test: flow cytometry on KATOIII cells (item 3); KATOIII cells
Procedure: as §1

human CLDN18.1 = human CLDN18.1 (human, UniProt P56856 1-261); test: flow cytometry on CHO-CLDN18.1 cells, PE anti-human IgG-Fc secondary antibody
Chain of human CLDN18.1 (P56856 whole entry): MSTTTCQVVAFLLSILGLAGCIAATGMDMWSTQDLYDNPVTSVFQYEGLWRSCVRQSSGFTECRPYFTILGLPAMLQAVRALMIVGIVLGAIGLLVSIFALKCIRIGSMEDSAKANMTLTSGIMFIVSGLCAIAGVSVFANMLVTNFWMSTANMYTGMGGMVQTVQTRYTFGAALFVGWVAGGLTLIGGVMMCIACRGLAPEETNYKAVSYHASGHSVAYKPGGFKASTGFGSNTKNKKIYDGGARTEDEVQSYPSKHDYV
Procedure: as §1

- EC50 (human CLDN18.2 [2]): 30 nM
- EC50 (human CLDN18.2 [3]): 8.08 nM
- ADCC Reporter Bioassay EC50 (luciferase, Jurkat-NFAT-luc-FcγRIIIa effector cells) (human CLDN18.2 [4]): 0.795 nM
B2: positive Antibody IMAB362 (antibody, V domains shown)
VH: QVQLQQPGAELVRPGASVKLSCKASGYTFTSYWINWVKQRPGQGLEWIGNIYPSDSYTNYNQKFKDKATLTVDKSSSTAYMQLSSPTSEDSAVYYCTRSWRGNSFDYWGQGTTLTVSS
VL: DIVMTQSPSSLTVTAGEKVTMSCKSSQSLLNSGNQKNYLTWYQQKPGQPPKLLIYWASTRESGVPDRFTGSGSGTDFTLTISSVQAEDLAVYYCQNDYSYPFTFGSGTKLEIKR
- CDC IC50 (cell killing rate of CHO-CLDN18.2 cells with 5% human serum complement, CCK-8) (human CLDN18.2 [4]): 5.87 nM

- EC50 (human CLDN18.2 [8]): 6.2 nM
- EC50 (human CLDN18.2 [6]): 22.8 nM
- binding result (human CLDN18.1): no binding (tested: about 330 nM)
B4: humanized Antibody H239H-2a-K-6a (antibody, human IgG1, kappa, V domains shown)
VH: EVQLLESGGGLVQPGGSLRLSCAASGFTFSDYGMHWVRQAPGKGLEWVAYISRGRSTTYSTDTVKGRFTISRDSSKNTLYLQMNSLRAEDTAVYYCARGSYYGNAMDYWGQGTLVTVSS
VL: DIVMTQSPDSLAVSLGERATINCKSSQSLLNSGNQRNYLTWYQQKPGQPPKLLIYWASTRESGVPDRFSGSGSGTDFTLTISSLQAEDVAVYYCQSAYSYPFTFGGGTKLEIKR
notes: Humanized antibody (humanized variable region + human constant region)

- EC50 (human CLDN18.2 [8]): 6.92 nM
- EC50 (human CLDN18.2 [6]): 23.3 nM
- ADCC Reporter Bioassay EC50 (luciferase, Jurkat-NFAT-luc-FcγRIIIa effector cells) (human CLDN18.2 [4]): 0.0625 nM
- binding result (human CLDN18.1): no binding (tested: about 330 nM)
B5: humanized Antibody H239H-2b-K-6a (antibody, human IgG1, kappa, V domains shown)
VH: B4 VH with S74N
VL: B4 VL
notes: as for B4
- CDC IC50 (cell killing rate of CHO-CLDN18.2 cells with 5% human serum complement, CCK-8) (human CLDN18.2 [4]): 0.291 nM

- EC50 (read off the curve) (human CLDN18.2 [1]): ~20 nM
B6: chimeric antibody CH394H2-K-1 (antibody, human IgG1, kappa, V domains shown)
VH: EVKLQESGAELMKPGASVKLSCKATGYTFTGYWIEWVKQRPGHGLEWIGEILPGSGSTNYNEKFKGKATFTADTSSNTAYMQLSSLTTEDSAIYYCARAPLEGLRSGFAYWGQGTLVTVSA
VL: DIVLTQSPASLAVSLGQRATISCRASESVDSYGNSFMHWYQQKPGQPPKLLIYRASNLESGIPARFSGSGSRTDFTLTINPVEADDVATYYCQQSNEDPRTFGGGTKLEIKR
notes: Chimeric antibody (murine variable region + human constant region)

More lines, now with the values behind:

B1: chimeric antibody CH101H1-K-1 (antibody, human IgG1, kappa, V domains shown)
VH: EVQLQESGPELVKPGASVKISCKASGYSFTSYYIHWVKQRPGQGLEWIGWIYPGSGNTKYNEKFKGKATLTADTSSSTAYMQLSSLTSEDSAVYYCARGMDYGNYYLDYWGQGTTLTVSS
VL: DIVMTQSHKFMSTSVGDRVSITCKASQDVGTAVAWYQQKPGQSPKLLIYWASTRHTGVPDRFTGSGSGTDFTLTISNVQSEDLADYFCQQYSSYLTFGAGTKLELKR
notes: as for B6
- EC50 (read off the curve) (human CLDN18.2 [1]): ~10 nM

B3: chimeric Antibody CH239H-2-K-6 (antibody, human IgG1, kappa, V domains shown)
VH: EVKLQESGGGLVKPGGSLKVSCAASGFTFSDYGMHWVRQAPEKGLEWVAYISRGRSTTYSTDTVKGRFTISRDSAKHTLFLQMTSLRSEDTAMYYCARGSYYGNAMDYWGQGTSVTVSS
VL: B2 VL with K18R, K36R, Y93F, N96S, D97A
notes: as for B6
- EC50 (human CLDN18.2 [5]): 6.11 nM
- EC50 (read off the curve) (human CLDN18.2 [1]): ~20 nM
- EC50 (human CLDN18.2 [6]): 19.9 nM
- EC50 (human CLDN18.2 [7]): 6.29 nM
